Where a chain is given by its changes, count along the chain named.
B1: sdAb H9-B11 (VHH)
VHH: DVQLQASGGGLVQVGGSLRLSCAASGSTFRIGYMGWYRQAPGKPRELVARISSGGTTDYLDFVKDRFTISRDNAKNTVYLQMSSLKPEDTAVYYCNVVNYRANEYWGQGTQVTVSS
notes: source: E. coli, periplasm, purified (IMAC, size exclusion chromatography)
B2: sdAb H9-D7 (VHH)
VHH: B1 VHH with G35S, Y37H, P44S, F62S, A74T, S83N, K86E, N99D, T113A
notes: source: E. coli Rosetta (DE3), periplasm, purified (IMAC, size exclusion chromatography)
B3: sdAb B12 (VHH)
VHH: EVQLQASGGGLVQAGGPLRLTCAVSGPTFGSYALGWFRQAPGKEREFVAAVSWSGGDTYADSVKGRFIISRDNAKNTVYLQMNNLEPEDTAVYSCARMQDRYYISKDAKDYGYWGQGTQVTVSS
notes: as for B2
B4: sdAb B1 (VHH)
VHH: B3 VHH with P17S, S62T, V63A, T121I
notes: as for B2
B5: sdAb H9 (VHH)
VHH: B3 VHH with P17S, G117E
notes: as for B2
B6: sdAb H9-H11 (VHH)
VHH: DVQLQASGGGLVQPGGSLRLSCAASESAVRIGFMGWHRQAPGNQRERVAQISSTGLPTYADAVKGRFTISRDNTKNTVYLQMNSLNADDTAVYFCNARLYDGTSVWGQGTQVTVSS
notes: as for B1
B7: sdAb S222-A2 (VHH)
VHH: B6 VHH with Q13E, E26G, R30S, N43K, L56I, T58N, A62T, V78M, V105A
notes: as for B1
B8: sdAb D9 (VHH)
VHH: EVQLQASGGGLAQAGDSLRLSCAASIRTFGSYAMGWFRQAPGKEREFVAAISWSGGDTYADSAKGRFTISRDNAKNMMYLQMNSLAPEDTAVYFCAIVEAKYYISKDARDYGYWGQGTQVFVSS
notes: as for B2
B9: sdAb H9-A1 (VHH)
VHH: EVQLQASGGGLVQPGGSLRLSCAASGSAVSIGFMAWYRQAPGKQRELVARISSSGLPDYADTVKGRFTISRDNTRKTVSLQMNSLNPDDTAVYYCNARLYDGSSAWGQGTQVTVSS
notes: as for B2
B10: sdAb E2 (VHH)
VHH: EVQLQASGGGLVQAGGSLRLTCAASGRTFGSYAMGWFRQAPGKEREFVAAISWSGGDTYADSVKGRFTISRDNAKNTVYLQMNSLAPEDTAVYSCAAVGARYYISKDAKDYGYWGQGTQVTVSS
notes: as for B2
B11: sdAb F1 (VHH)
VHH: B10 VHH with E1D, G26L, R27H, A60S, A86E, G99E, K106T
notes: as for B2
B12: sdAb H12 (VHH)
VHH: EVQLQASGGGLVLTGGSLRLSCAASGRNFSNYAMAWFRQAPGKEREFVGTISWYTNTNYANSVKGRFSISRDNAKNTVYLQMSSLKPEDTAVYYCAAAPAMYYNPYTRESEYGYWGQGTQVTVSS
notes: as for B2
B13: sdAb E9 (VHH)
VHH: B12 VHH with L13Q, T14A, N28D, N31D, N61D, M101R, T107K
notes: as for B2
B14: sdAb A10 (VHH)
VHH: EVQLQASGGGLVRAGGTLRLTCDATTPTFGSYAMGWFRQAPGKEREFVSAISWSGGDTYADSVKGRFTISRDNTRNRVYLQMNDLEPDDTAIYTCARTTARYYISKDAKDYDYWGQGTQVTVSS
notes: as for B2

These binders were tested against staphylococcal enterotoxin B (Staphylococcus aureus (strain not …, UniProt P01552)) (assay: SPR). Conditions: both partners purified.
Sequence of staphylococcal enterotoxin B (Staphylococcus aureus (P01552 28-266): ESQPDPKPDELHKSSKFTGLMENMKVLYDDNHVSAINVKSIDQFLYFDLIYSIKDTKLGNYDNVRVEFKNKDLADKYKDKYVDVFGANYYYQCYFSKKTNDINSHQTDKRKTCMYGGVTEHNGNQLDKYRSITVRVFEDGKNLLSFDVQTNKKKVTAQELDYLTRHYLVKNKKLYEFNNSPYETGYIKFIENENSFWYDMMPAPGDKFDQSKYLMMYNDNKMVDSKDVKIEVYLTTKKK
Binder B1 has a Kd of 3320 pM, a koff of 0.000512 s⁻¹ and a kon of 154000 M⁻¹ s⁻¹. For B2, the Kd was 1100 pM, the koff was 0.000192 s⁻¹ and the kon was 174000 M⁻¹ s⁻¹. Work on B3 yielded a Kd of 232 pM, a koff of 0.000321 s⁻¹ and a kon of 1.39e+06 M⁻¹ s⁻¹. Work on B4 yielded a Kd of 200 pM, a koff of 0.00039 s⁻¹ and a kon of 1.95e+06 M⁻¹ s⁻¹. Work on B5 yielded a Kd of 90 pM, a koff of 0.000318 s⁻¹ and a kon of 3.53e+06 M⁻¹ s⁻¹. With B6 the Kd was 1560 pM, the koff was 0.000755 s⁻¹ and the kon was 485000 M⁻¹ s⁻¹. B7 showed a Kd of 4160 pM, a koff of 0.00506 s⁻¹ and a kon of 1.22e+06 M⁻¹ s⁻¹. With B8 the Kd was 111 pM, the koff was 0.000277 s⁻¹ and the kon was 2.49e+06 M⁻¹ s⁻¹. For B9, the Kd was 1250 pM, the koff was 0.00227 s⁻¹ and the kon was 1.8e+06 M⁻¹ s⁻¹. B10 was tested, and the Kd was 273 pM, the koff was 0.00351 s⁻¹ and the kon was 1.28e+07 M⁻¹ s⁻¹. With B11 the Kd was 650 pM, the koff was 0.00042 s⁻¹ and the kon was 646000 M⁻¹ s⁻¹. Binder B12 has a Kd of 272 pM, a koff of 0.000607 s⁻¹ and a kon of 2.23e+06 M⁻¹ s⁻¹. B13 gave a Kd of 533 pM, a koff of 0.000589 s⁻¹ and a kon of 1.11e+06 M⁻¹ s⁻¹. In the case of B14, the Kd is reported as 158 pM, the koff is reported as 0.000277 s⁻¹ and the kon is reported as 1.76e+06 M⁻¹ s⁻¹.
